Measurements reported in patent US20240287484.

Assays:
Conditions in all cases: qPCR; 3 mM MgCl2, 37 C
[1] = tested on: T1, MG153-14 RT (uncultivated organism (metagenomic))
T1 sequence: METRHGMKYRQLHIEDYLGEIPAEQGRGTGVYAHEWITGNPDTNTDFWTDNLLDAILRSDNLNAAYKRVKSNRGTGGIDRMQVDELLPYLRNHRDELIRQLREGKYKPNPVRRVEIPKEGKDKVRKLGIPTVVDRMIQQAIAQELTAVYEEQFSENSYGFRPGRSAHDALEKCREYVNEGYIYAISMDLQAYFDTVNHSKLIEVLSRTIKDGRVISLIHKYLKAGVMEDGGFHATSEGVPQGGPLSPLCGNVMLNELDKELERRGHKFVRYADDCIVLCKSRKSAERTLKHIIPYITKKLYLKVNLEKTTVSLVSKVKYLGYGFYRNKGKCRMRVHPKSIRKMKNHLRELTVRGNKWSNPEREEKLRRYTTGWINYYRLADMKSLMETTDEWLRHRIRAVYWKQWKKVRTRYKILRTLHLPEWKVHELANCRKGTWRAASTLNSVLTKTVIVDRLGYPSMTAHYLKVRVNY

[2] = tested on: T2, MG153-55 RT (uncultivated organism (metagenomic))
T2 sequence: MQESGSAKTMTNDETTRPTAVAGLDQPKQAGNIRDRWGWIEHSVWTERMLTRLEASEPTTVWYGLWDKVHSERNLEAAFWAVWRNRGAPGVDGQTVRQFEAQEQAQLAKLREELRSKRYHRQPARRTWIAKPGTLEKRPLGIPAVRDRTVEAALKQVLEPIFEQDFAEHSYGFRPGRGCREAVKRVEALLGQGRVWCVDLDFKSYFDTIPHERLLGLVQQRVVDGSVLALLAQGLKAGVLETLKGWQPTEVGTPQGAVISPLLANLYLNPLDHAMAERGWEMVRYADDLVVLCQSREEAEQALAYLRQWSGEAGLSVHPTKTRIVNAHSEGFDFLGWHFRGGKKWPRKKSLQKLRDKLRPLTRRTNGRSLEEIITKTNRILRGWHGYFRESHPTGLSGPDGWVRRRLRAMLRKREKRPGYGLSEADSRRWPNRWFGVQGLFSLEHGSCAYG

[3] = tested on: T3, MG153-32 RT (uncultivated organism (metagenomic))
T3 sequence: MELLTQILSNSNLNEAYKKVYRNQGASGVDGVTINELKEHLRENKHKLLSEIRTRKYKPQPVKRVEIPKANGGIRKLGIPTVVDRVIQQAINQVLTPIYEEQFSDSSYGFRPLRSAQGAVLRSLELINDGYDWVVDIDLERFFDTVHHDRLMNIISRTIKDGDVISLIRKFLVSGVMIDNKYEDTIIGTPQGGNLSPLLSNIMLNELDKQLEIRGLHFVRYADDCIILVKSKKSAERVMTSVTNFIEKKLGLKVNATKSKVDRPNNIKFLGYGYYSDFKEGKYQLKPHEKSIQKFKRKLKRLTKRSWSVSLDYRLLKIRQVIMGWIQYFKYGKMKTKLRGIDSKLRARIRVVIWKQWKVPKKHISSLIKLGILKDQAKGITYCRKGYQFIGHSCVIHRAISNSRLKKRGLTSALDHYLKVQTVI

[4] = tested on: T4, MG153-43 RT (uncultivated organism (metagenomic))
T4 sequence: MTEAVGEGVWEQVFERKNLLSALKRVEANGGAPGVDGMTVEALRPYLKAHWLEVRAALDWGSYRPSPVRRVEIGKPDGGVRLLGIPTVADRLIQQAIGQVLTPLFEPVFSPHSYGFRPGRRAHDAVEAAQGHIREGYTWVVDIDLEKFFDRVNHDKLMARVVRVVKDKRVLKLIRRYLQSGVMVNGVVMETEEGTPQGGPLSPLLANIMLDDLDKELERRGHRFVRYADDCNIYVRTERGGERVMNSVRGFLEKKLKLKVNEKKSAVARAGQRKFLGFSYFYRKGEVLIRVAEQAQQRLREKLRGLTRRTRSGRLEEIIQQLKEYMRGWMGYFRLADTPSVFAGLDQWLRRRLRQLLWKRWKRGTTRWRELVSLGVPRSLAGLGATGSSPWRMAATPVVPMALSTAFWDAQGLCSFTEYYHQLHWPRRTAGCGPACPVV

[5] = tested on: T5, MG153-7 RT (uncultivated organism (metagenomic))
T5 sequence: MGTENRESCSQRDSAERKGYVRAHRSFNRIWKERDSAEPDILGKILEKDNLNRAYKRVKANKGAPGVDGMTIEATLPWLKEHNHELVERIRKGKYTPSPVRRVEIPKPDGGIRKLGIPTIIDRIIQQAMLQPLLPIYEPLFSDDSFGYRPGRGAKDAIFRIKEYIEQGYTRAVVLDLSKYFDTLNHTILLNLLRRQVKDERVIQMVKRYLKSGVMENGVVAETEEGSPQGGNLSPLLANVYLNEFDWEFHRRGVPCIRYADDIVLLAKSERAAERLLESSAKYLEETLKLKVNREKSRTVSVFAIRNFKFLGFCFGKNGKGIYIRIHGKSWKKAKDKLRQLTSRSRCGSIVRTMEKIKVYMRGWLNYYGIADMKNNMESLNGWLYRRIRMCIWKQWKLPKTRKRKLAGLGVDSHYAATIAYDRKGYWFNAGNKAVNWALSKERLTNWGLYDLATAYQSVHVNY

[6] = tested on: T6, MG153-28 RT (uncultivated organism (metagenomic))
T6 sequence: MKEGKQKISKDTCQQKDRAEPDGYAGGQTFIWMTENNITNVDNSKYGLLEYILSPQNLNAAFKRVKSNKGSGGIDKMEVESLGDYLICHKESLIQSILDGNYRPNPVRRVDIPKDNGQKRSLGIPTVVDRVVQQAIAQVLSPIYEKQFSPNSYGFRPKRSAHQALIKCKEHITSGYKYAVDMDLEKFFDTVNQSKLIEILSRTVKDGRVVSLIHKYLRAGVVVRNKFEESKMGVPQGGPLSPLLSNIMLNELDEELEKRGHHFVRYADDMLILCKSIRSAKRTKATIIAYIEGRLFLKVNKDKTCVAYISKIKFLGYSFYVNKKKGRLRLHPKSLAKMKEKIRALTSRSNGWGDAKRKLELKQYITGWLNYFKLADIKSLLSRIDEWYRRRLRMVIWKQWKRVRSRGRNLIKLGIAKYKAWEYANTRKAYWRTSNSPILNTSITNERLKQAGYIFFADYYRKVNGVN

Measured: activity (fold over background)

200 nt RNA template annealed to DNA primer
> 10: all assays above
